The record followed here is patent US20230203190A1.

“And” between values parts separate entries of the source, which are not always exact repeats. Identical values can stand only once.

For assay [1], the target named is human colorectal and pancreatic carcinoma-associated antigens (CPAA) (human). Description: flow cytometry, MCF-7 breast tumor cells, control antibody. In general terms: A flow cytometer gives signals particle by particle.
The target is the same in assay [2]. Briefly: flow cytometry, GEO colorectal tumor cells, control antibody.
The target is the same in assay [3]. Briefly: flow cytometry, OVCAR-3 ovarian tumor cells, control antibody.
Assay [4] has the same target. Briefly: flow cytometry, LS174T colorectal tumor cells, control antibody.
The target is the same in assay [5]. Briefly: flow cytometry, CFPAC-1 pancreatic tumor cells, control antibody.
Assay [6] has the same target. Description: flow cytometry, HT-29 colorectal tumor cells, 2 ug NPC-1C per 100,000 cells.
For assay [7] the target is unchanged. Briefly: flow cytometry, SW480 colorectal tumor cells, 2 ug NPC-1C per 100,000 cells.
Assay [8] shares this target. Briefly: flow cytometry, SW620 colorectal tumor cells, 2 ug NPC-1C per 100,000 cells.
Assay [9] shares this target. Description: flow cytometry, AsPC-1 pancreatic tumor cells, 2 ug NPC-1C per 100,000 cells.
Assay [10] shares this target. Briefly: flow cytometry, LS174T colorectal tumor cells, 2 ug NPC-1C per 100,000 cells.
For assay [11] the target is unchanged. Briefly: flow cytometry, Panc-1 pancreatic tumor cells, 2 ug NPC-1C per 100,000 cells.
Assay [12] shares this target. Briefly: flow cytometry, SW1116 colorectal tumor cells, 2 ug NPC-1C per 100,000 cells.
The target is the same in assay [13]. Briefly: flow cytometry, SW1463 colorectal tumor cells, 2 ug NPC-1C per 100,000 cells.
The target is the same in assay [14]. Briefly: flow cytometry, CFPAC-1 pancreatic tumor cells, 2 ug NPC-1C per 100,000 cells.
The target is the same in assay [15]. Description: flow cytometry, Colo-205 colorectal tumor cells, 2 ug NPC-1C per 100,000 cells.
Assay [16] has the same target. Description: flow cytometry, H226 squamous tumor cells (type reported as not bound), 2 ug NPC-1C per 100,000 cells.
The target is the same in assay [17]. Briefly: flow cytometry, H520 squamous tumor cells (type reported as not bound), 2 ug NPC-1C per 100,000 cells.
The target is the same in assay [18]. Description: flow cytometry, PC-3 prostate tumor cells (type reported as not bound), 2 ug NPC-1C per 100,000 cells.
Assay [19] has the same target. Briefly: flow cytometry, DU145 prostate tumor cells (type reported as not bound), 2 ug NPC-1C per 100,000 cells.
Assay [20] has the same target. Briefly: flow cytometry, SW756 squamous tumor cells (type reported as not bound), 2 ug NPC-1C per 100,000 cells.
Assay [21] shares this target. Description: flow cytometry, HTB-35 squamous tumor cells (type reported as not bound), 2 ug NPC-1C per 100,000 cells.
The target is the same in assay [22]. Briefly: flow cytometry, GEO colorectal tumor cells, 2.5 ug NPC-1 per 100,000 cells.
For assay [23] the target is unchanged. Description: flow cytometry, LS174T colorectal tumor cells, 2.5 ug NPC-1 per 100,000 cells.
For assay [24] the target is unchanged. Briefly: flow cytometry, CFPAC-1 pancreatic tumor cells, 2.5 ug NPC-1 per 100,000 cells.
Assay [25] shares this target. Briefly: flow cytometry, MCF-7 breast tumor cells (line reported as not bound), 2.5 ug NPC-1 per 100,000 cells.
The target is the same in assay [26]. Briefly: flow cytometry, OVCAR-3 ovarian tumor cells (line reported as not bound), 2.5 ug NPC-1 per 100,000 cells.

For the molecule Isotype Control (antibody), the % Cell Staining in [1] was determined as 0.94%; in assay [2], 0.78%; in [3], 0.19%; in assay [4] it was 0.93%; in assay [5], 0.44%.

B1: NPC-1C chimeric antibody (antibody, mouse IgG1, kappa, V domains shown)
VH: QVQLKESGPDLVAPSQSLSITCIVSGFSLSKFGVNWVRQPPGKGLEWLGVIWGDGSTSYNSGLISRLSIKENSKSQVFLKLNSLQADDTATYYCVKPGGDYWGHGTSVTVSS
VL: QVVLTQSPVIMSASPGEKVTMTCSASSSISYMYWYQQKPGTSPRWIYDTSKLASGVPARFSGGSGTSYSLTISNMEAGDAAYYCHQRDSYPWTFGGGTNLIKRA
B1: the % Cell Staining in assay [6] is 1.3% and 1.09%; in assay [7] it was 1.41% and 1.34%; in [8], 0.24% and 0.85%; in [9], 0.43% and 0.35%; in assay [10] it was 11.6% and 11.2%; in assay [11], 0.75% and 0.41%. For the same molecule, the % Cell Staining in assay [12] is 1.12% and 2.37%; in [13] it was 3.72% and 4.29%; in assay [14], 11.2% and 10.6%; in assay [15], 2.26% and 1.44%; in assay [16] it was 0.49% and 0.4%; in assay [17], 1.66% and 0.93%. In addition, the % Cell Staining is 1.34% and 1.52% in assay [18]; 0.24% and 0.14% in assay [19]; 0.75% and 2.14% in assay [20]; 4.83% and 3.85% in assay [21]. Moreover, the mfi (mean fluorescence intensity) is 55 and 34 in [6]; 44 and 64 in [7]; 184 and 74 in assay [8]; 33 and 34 in assay [9]; 43 and 47 in assay [10]; 69 and 31 in [11]. Further, the mfi (mean fluorescence intensity) in [12] is 97 and 174; in assay [13] it was 410 and 399; in [14], 16 and 15; in assay [15], 154 and 67; in assay [16], 32; in assay [17], 129 and 173. Besides, the mfi (mean fluorescence intensity) in assay [18] was 17 and 28; in assay [20], 186 and 178; in assay [21], 97 and 123.

B2: NPC-1 monoclonal antibody (antibody, mouse IgG1, kappa, V domains shown)
VH: B1 VH
VL: B1 VL
As to B2, the % Cell Staining in assay [22] amounted to 86.9%; in assay [23], 57%; in assay [24] it was 54.6%; in assay [25], 0.19%; in assay [26] it was 0.19%.
